In patent US20140234336A1:

Experiments:
Experiment in all cases: cell-based or functional assay
[1] = biological target: HA of H3N2 influenza virus A/Brisbane/10/07 (influenza A virus H3N2 A/Brisbane/10/07)
[2] = biological target: HA of H3N2 influenza virus A/Hong Kong/68 (influenza A virus H3N2 A/Hong Kong/68)
[3] = biological target: HA of H2N2 influenza virus A/Ann Arbor/6/60, CA (influenza A virus H2N2 A/Ann Arbor/6/60, CA)
[4] = biological target: HA of H9N2 influenza virus A/Green-winged teal/209/TX/2009 (influenza A virus H9N2 A/Green-winged teal/209/TX/2009)
[5] = biological target: HA of H3N2 influenza virus A/Sydney/5/97 (influenza A virus H3N2 A/Sydney/5/97)
[6] = biological target: HA of H3N2 influenza virus A/Beijing/353/89-X109 (influenza A virus H3N2 A/Beijing/353/89-X109)
[7] = biological target: HA of H3N2 influenza virus A/Wisconsin/67/05 (influenza A virus H3N2 A/Wisconsin/67/05)
[8] = biological target: HA of H3N2 influenza virus A/Johannesburg/33/94 R-H3 (influenza A virus H3N2 A/Johannesburg/33/94 R-H3)
[9] = biological target: HA of H3N2 influenza virus A/Nanchang/933/95 (influenza A virus H3N2 A/Nanchang/933/95)
[10] = biological target: HA of H1N1 influenza virus A/OH/07/2009 (influenza A virus H1N1 A/OH/07/2009)
[11] = biological target: HA of H3N2 influenza virus A/Panama/2007/99 (influenza A virus H3N2 A/Panama/2007/99)
[12] = biological target: HA of H3N2 influenza virus A/Beijing/32/92-R-H3 (influenza A virus H3N2 A/Beijing/32/92-R-H3)

CT149 antibody
MN assay: lowest antibody concentration at which no virus antigen was detected [1]: 1.25 µg/mL
MN titer [1]: 0.625 µg/mL
MN assay: lowest antibody concentration at which no virus antigen was detected [2]: 2.5 µg/mL
MN titer [3]: > 20 µg/mL
MN titer [4]: 0.156 µg/mL
MN titer [5]: 0.625 µg/mL
MN titer [6]: 0.156 µg/mL
MN assay: lowest antibody concentration at which no virus antigen was detected [7]: 1.25 µg/mL
MN titer [8]: 0.625 µg/mL
MN titer [9]: 0.625 µg/mL
MN titer [10]: 10 µg/mL
MN titer [11]: 0.312 µg/mL
MN titer [12]: 0.078 µg/mL
